Laboratory results as given in patent publication US20230146533A1, “KERATIN BD-10, PREPARATION METHOD THEREFOR AND PHARMACEUTICAL COMPOSITION AND USE THEREOF” (INSTITUTE OF MATERIA MEDICA, CHINESE ACADEMY OF MEDICAL …, priority 2019, published 2023).

How the values were obtained:
[1] = test system: yeast-induced fever model in rats; assay: Yeast-induced fever model in SD rats; type: in vivo; conditions: for Body temperature 2 hours after modeling / Body temperature 4 hours after modeling / Body temperature 6 hours after modeling / Body temperature 8 hours after modeling: 20% yeast suspension 10 ml/kg s.c., SD rats
Protocol: Animals: 230-260 grams of male SD rats; Medicines: yeast (OXOID LP0021), aspirin (SIGMA A2093), protein BD-10; Instruments: electronic balance (SARTORIUS BP121S type), electronic clinical thermometer (CITIZEN CT-513W type). Experiment grouping: • Normal control group; • Model group: yeast fever model; • Positive control group: Aspirin 300 mg/kg group; • Protein BD-10, 10 mg/kg group, 50 mg/kg group.
(§1) Preparation of experimental animals: After the experimental animals adapt to the experimental environment (temperature 22° C.±2° C., relative humidity 50%±2%) for 1 day. Pre-adaptation to measure rectal temperature at 8:00 and 15:00, rats were fasted and water was taken freely 12 h before experiment, and let the animal to empty its feces before measuring the rectal temperature. Apply petroleum jelly to the electronic thermometer probe before each temperature measurement. Insert the rat rectum 2 cm (can be marked at 2 cm to ensure that the depth of each insertion is consistent), and record the body temperature after the reading is stable.
(§2) Subcutaneous injection of dry yeast to replicate rat fever model: The body temperature of the rats was measured before modeling. Qualified rats with a body temperature of 36.2-37.3° C. were selected and randomly divided into groups with 8 rats in each group. After oral administration of aspirin and different doses of protein BD-10, 20% yeast suspension (10 ml/kg) was injected subcutaneously immediately, and the normal control group was injected intraperitoneally with an equal volume of normal saline. The body temperatures of the rats were monitored after 2 hours for a total of 8 hours.
(§3) According to the body temperature measured at each time point on the day of the experiment, calculate the mean, standard deviation and standard error of the body temperature of each group of rats. The data of each group was compared with TTEST, and P<0.05 was considered as a significant difference.

[2] = test system: acetic acid writhing of ICR mice; assay: Acetic acid writhing test in ICR mice; type: in vivo; conditions: for Frequency of writhing / Writhing incubation period: observed within 15 minutes
Protocol: Animals: male ICR mice; Drugs and reagents: aspirin, physiological saline, glacial acetic acid, protein BD-10. Experiment grouping: • Model group; • Aspirin 300 mg/kg group; • Protein BD-10, 50 mg/kg group, 200 mg/kg group.
One day after the experimental animals adapt to the environment, Aspirin 300 mg/kg, protein BD-10 50 mg/kg, 200 mg/kg were given orally one hour in advance, and the administration volume was 10 ml/kg; Then, 0.6% acetic acid solution was injected intraperitoneally, and the incubation period (seconds) and frequency of writhing in the animal was observed within 15 minutes.
Calculate the mean and standard error of the data in each group. Compared with the model group by TTEST, P<0.05 was considered as statistically different.

[3] = test system: mice cough induced by ammonia water; assay: Antitussive test, cough induced by ammonia water in mice; type: in vivo, ICR mice; conditions: for Incubation period (cough) / Number of coughs: 10% ammonia water atomized 10 seconds one hour later, X ± SEM; for Number of coughs: coughs within 2 minutes
Protocol: Animals: male ICR mice; Drugs and reagents: dextromethorphan hydrobromide, ammonia water, 0.2% CMC-Na, protein BD-10; Apparatus: Compressed nebulizer (403T type), balance (XS105DU type). Experiment grouping: • Solvent control group; • Dextromethorphan 15 mg/kg group; • Protein BD-10, 20 mg/kg group, 50 mg/kg group.
Dextromethorphan and different doses of protein BD-10 (administration volume 10 ml/kg) were given orally in groups, and the solvent control group was given the same volume of distilled water. One hour later, mice were put into a sealed box and atomized 10% ammonia water for 10 seconds, and then observed and recorded the incubation period of cough in mice and the number of coughs in 2 minutes.
Record the time point of oral administration, the time point of atomization experiment, the incubation period of mice cough and the number of coughs within 2 minutes, respectively. The incubation period of cough refers to the number of seconds from the start of the atomization of ammonia to the occurrence of cough. The performance of coughing in mice is based on contraction of their abdominal muscles (breast contraction) and opening their mouths at the same time. Calculate the mean and standard error of each group of data, and use TTEST to compare the model group with other groups, and P<0.05 is considered as a significant difference.

[4] = test system: lipopolysaccharide (LPS) induced fever in SD rats; assay: Lipopolysaccharide (LPS) induced fever model in SD rats; type: in vivo; conditions: for Body temperature 2 hours after modeling / Body temperature 4 hours after modeling / Body temperature 6 hours after modeling / Body temperature 8 hours after modeling: LPS 20 μg/kg i.p., SD rats
Protocol: Animals: 230-260 grams of male SD rats; Drugs: lipopolysaccharide (LPS, SIGMA L-2880), aspirin (SIGMA A2093), protein BD-10; Instruments: electronic balance (SARTORIUS BP121S type), electronic clinical thermometer (CITIZEN CT-513W type).
Method: the method of intraperitoneal injection of Lipopolysaccharide to replicate rat fever model.
as §1
as §2, with “Intraperitoneal” for “Subcutaneous”, “lipopolysaccharide” for “dry yeast”, “lipopolysaccharide (20 μg/kg, 2” for “20% yeast suspension (10”, “intraperitoneally” for “subcutaneously”
as §3

[5] = BD-10 50 mg/kg oral one hour before 0.6% acetic acid i.p.
[6] = BD-10 200 mg/kg oral one hour before 0.6% acetic acid i.p.

B1: BD-10: recombinant keratin with amino acid sequence SEQ ID NO:1, expressed in E. coli inclusion bodies, band around 55 kD (protein, listed as Bos taurus)
chain: MSCRSYRISPGYSVTRTFSSCSAVAPKTGSRCCITAAPYRGVSCYRGLTGFGSRSVSALGSCGPRIAVGGFRAGSCNRSFGYRSGGVGGLSPPCITTVSVNESLLTPLNLEIDPNAQCVKHEEKEQIKNLNSRFAAFIDKVRFLEQQNKLLETKWQFYQNQRCCESNLEPLFNGYIETLRREAEHVEADGGRLASELNHVQEVLEGYKKKYEEEVALRATAENEFVVLKKDVDCAYLRKSDLEANVEALVEESNFLKRLYDEEIQILNAHISDTSVIVKMDNSRDLNMDCVVAEIKAQYDDIASRSRAEAESWYRNKCEEMKATVIRHGETLRRTKEEINELNRIIQRLTAEIENAKCQRTKLEAAVAEAEQQGEAALNDARCKLAGLEEALQKAKQDMACLLKEYQEVMNSKLGLDIEIATYRRLLEGEEQRLCEGVGSVNVCVSSSRGGVTCGGLTYSTTAGRQIASGPVATGGSITVLAPDSCVPCQPRASSFSCGSSRSVRFA
- Body temperature 2 hours after modeling ([1]; BD-10 10 mg/kg oral): 36.8 ± 0.05 °C
- Body temperature 4 hours after modeling ([1]; BD-10 10 mg/kg oral): 37.2 ± 0.1 °C
- Body temperature 6 hours after modeling ([1]; BD-10 10 mg/kg oral): 37.4 ± 0.1 °C
- Body temperature 8 hours after modeling ([1]; BD-10 10 mg/kg oral): 37.5 ± 0.1 °C
- Body temperature 2 hours after modeling ([1]; BD-10 50 mg/kg oral): 37.0 ± 0.1 °C
- Body temperature 4 hours after modeling ([1]; BD-10 50 mg/kg oral): 37.4 ± 0.04 °C
- Body temperature 6 hours after modeling ([1]; BD-10 50 mg/kg oral): 37.4 ± 0.01 °C
- Body temperature 8 hours after modeling ([1]; BD-10 50 mg/kg oral): 37.4 ± 0.09 °C
- Effect on increase in body temperature (in words, summary) ([1]; BD-10, dose not stated, 2, 4, 6 and 8 hours after modeling): can significantly inhibit the increase in body temperature
- Effect on body temperature of model rats (in words) ([1]; different doses of BD-10 (10, 50 mg/kg), most time points after modeling, vs model group P<0.05): can inhibit the increase in body temperature of model rats to varying degrees
- Effect on writhing (in words) ([2]; BD-10 50 mg/kg and 200 mg/kg dose groups, vs model group P<0.05): can significantly reduce the number of writhing mice
- Frequency of writhing [2, 5]: 22.7 ± 3.9 times
- Writhing incubation period [2, 5]: 237.4 ± 44.8 s
- Frequency of writhing [2, 6]: 19.8 ± 3.7 times
- Writhing incubation period [2, 6]: 251.2 ± 43.3 s
- Effect on number of writhing times (in words, summary) ([2]; BD-10, dose not stated): can significantly reduce the number of writhing times
- Incubation period (cough) ([3]; BD-10 20 mg/kg oral): 31.4 ± 2.6 s
- Number of coughs ([3]; BD-10 20 mg/kg oral): 55.3 ± 4.2
- Incubation period (cough) ([3]; BD-10 50 mg/kg oral): 29.4 ± 3.0 s
- Number of coughs ([3]; BD-10 50 mg/kg oral): 59.8 ± 3.9
- Effect on incubation period and number of coughs (in words) ([3]; BD-10, dose not stated, not statistically significant): has a tendency to prolong the incubation period and reduce the number of coughs
- Effect on body temperature of model rats (in words) ([4]; BD-10 10 mg/kg dose group, 2 hours after modeling, vs model group P<0.05): can significantly reduce the body temperature
- Body temperature 2 hours after modeling ([4]; BD-10 10 mg/kg oral): 37.3 ± 0.1 °C
- Body temperature 4 hours after modeling ([4]; BD-10 10 mg/kg oral): 37.8 ± 0.1 °C
- Body temperature 6 hours after modeling ([4]; BD-10 10 mg/kg oral): 37.8 ± 0.1 °C
- Body temperature 8 hours after modeling ([4]; BD-10 10 mg/kg oral): 37.6 ± 0.1 °C
- Body temperature 2 hours after modeling ([4]; BD-10 50 mg/kg oral): 37.3 ± 0.2 °C
- Body temperature 4 hours after modeling ([4]; BD-10 50 mg/kg oral): 37.7 ± 0.2 °C
- Body temperature 6 hours after modeling ([4]; BD-10 50 mg/kg oral): 37.9 ± 0.2 °C
- Body temperature 8 hours after modeling ([4]; BD-10 50 mg/kg oral): 37.6 ± 0.1 °C
- Effect on body temperature rise (in words, summary) ([4]; BD-10, dose not stated, 2 hours after modeling): has a significant effect of reducing body temperature rise
